Test results taken from patent publication US20040072238A1 (Kyowa Kirin, published 2004).

Experiments:
human IGF-I (Peprotech) = biological target: T1, human IGF-I (Peprotech) (human, UniProt P05019 49-118); assay: far-Western: COS-1 cell lysate on PVDF membrane, probed with 2 µg/ml human IGF-I, detected with anti-human IGF-I monoclonal antibody
T1 construct: Bought reagent; also called IGF-1
Description: (§1) To investigate the binding affinity of the proteins encoded by C-hsi13412 and C-kaia397 to IGF, analysis by far-Western (Molecular Cloning—A Laboratory Manual, Third Edition, Cold Spring Harbor Laboratory; Protein Experiment Protocol 1, Shujunsha) was carried out using the cell lysates of COS-1/C-hsi13412 cell line, COS-1/C-kaia397, and, as a control, COS-1/mock cell line obtained in Example 8.
(§2) A 5 μl aliquot of the cell lysates of COS-1/mock cell line, COS-1/C-hsi13412 cell line, and COS-1/C-kaia397 cell line was placed into each lane, and according to Example 14, SDS-PAGE was carried out, transferred to a PVDF membrane, and then blocked. Subsequently, 2 μg/ml human IGF-I (Peprotech), 2 μg/ml human IGF-II (Peprotech), or 2 μg/ml of human insulin (Sigma) diluted with the blocking solution was enclosed with the membrane, and was allowed to react at room temperature overnight. Next, anti-human IGF-I monoclonal antibody (Upstate Biotechnology), anti-human IGF-II monoclonal antibody (Upstate Biotechnology), or anti-human insulin polyclonal antibody (Santa Cruz) were added to each of the membranes to a concentration of 2 μg/ml, and was left standing at room temperature for 1 hour. After the membrane was washed well with Tween-TBS, detection was carried out using peroxiase-labeled rabbit anti-mouse immunoglobulin (DAKO) diluted 2,000 times as the secondary antibody.

human IGF-II (Peprotech) = biological target: T2, human IGF-II (Peprotech) (human, UniProt P01344 25-91); assay: far-Western: COS-1 cell lysate on PVDF membrane, probed with 2 µg/ml human IGF-II, detected with anti-human IGF-II monoclonal antibody
T2 construct: Bought reagent; also called IGF-2
T2 sequence (P01344 25-91 limits assumed): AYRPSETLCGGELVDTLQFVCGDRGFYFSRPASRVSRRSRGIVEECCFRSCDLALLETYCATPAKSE
Description: as §1, §2

human insulin (Sigma) = biological target: T3, human insulin (Sigma) (human, UniProt P01308 25-54; P01308 90-110); assay: far-Western: COS-1 cell lysate on PVDF membrane, probed with human insulin, detected with anti-human insulin polyclonal antibody
T3 construct: Bought reagent
T3 sequence (P01308 25-54 limits assumed, chain 1 of 2): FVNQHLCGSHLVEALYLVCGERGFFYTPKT
T3 sequence (P01308 90-110 limits assumed, chain 2 of 2): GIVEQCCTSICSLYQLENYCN
Description: as §1, §2

T1 sequence (P05019 49-118 limits assumed): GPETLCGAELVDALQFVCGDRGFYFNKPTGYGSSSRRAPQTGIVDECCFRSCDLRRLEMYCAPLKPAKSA

binding result (human IGF-I (Peprotech)): binds
binding result (human IGF-II (Peprotech)): binds
binding result (human insulin (Sigma)): no binding (tested: 2 µg/ml)
B1: protein encoded by C-kaia397 with FLAG marker peptide at the C-terminus, expressed in COS-1 cells (COS-1/C-kaia397 cell line) (other, not shown: small tags and cut ends)
chain: RPSPGPDYLRRGWMRLLAEGEGCAPCRPEECAAPRGCLAGRVRDAGGCCWECANLEGQLCDLDPSAHFYGHCGEQLECRLDTGGDLSRGEVPEPLCACRSQSPLCGSDGHTYSQICRLQEAARARPDANLTVAHPGPCESDWMPLLGHAILRPPAFTPRAPDRVTSI
notes: Tested as COS-1 cell lysate or culture supernatant, not purified
